In paper PMC7952403 (Nature Communications, 2021):

Target: SARS-CoV-2 RBD-SD1, HEK cell produced (SPR) (Severe acute respiratory syndrome …, UniProt P0DTC2)
Test: SPR
Conditions: both partners purified

B1: STE73-2E9 IgG (antibody, V domains shown)
VH: QVQLVQSGAEVKKPGASVKVSCKASGYTFTSYGISWVRQAPGQGLEWMGWISAYNGNTNYAQKLQGRVTMTTDTSTSTAYMELRSLRSDDTAVYYCARGKFDYWGQGTLVTVSS
VL: QSVLTQPPSVSEAPSQRVTISCSGSSSNIGNNAVNWYQQLPGKAPKLLIYYDDVLPSGVSDRFSGSKSGTSASLAISGLQSGDEADYYCAAWDDSLSGVVFGGGTKLTVL
notes: source: Expi293F, transfected, purified (Protein A); copies: 2 + 2
Work on B1 yielded a Kd of 2 nM.
